Experimental data: paper PMC3408954

What was measured:
[1] = molecular target: T1, human chemokine receptor CXCR4 fused to the N-terminus of GFP or TagRFP (human), P61073; assay: FRET or BRET; conditions: remark: other sources report otherwise
T1 chain: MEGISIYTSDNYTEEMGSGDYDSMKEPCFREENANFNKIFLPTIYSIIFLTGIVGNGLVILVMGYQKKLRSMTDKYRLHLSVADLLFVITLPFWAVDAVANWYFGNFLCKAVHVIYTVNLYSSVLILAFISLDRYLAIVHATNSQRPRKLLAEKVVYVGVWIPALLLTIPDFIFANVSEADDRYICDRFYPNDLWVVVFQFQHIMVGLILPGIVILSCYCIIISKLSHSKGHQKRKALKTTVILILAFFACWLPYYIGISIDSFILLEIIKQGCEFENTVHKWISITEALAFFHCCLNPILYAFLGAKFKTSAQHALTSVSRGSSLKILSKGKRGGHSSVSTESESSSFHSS

[2] = molecular target: T1, human chemokine receptor CXCR4 fused to …; assay: FRET or BRET; conditions: remark: other sources report otherwise

B1: human chemokine receptor CXCR4 fused to the N-terminus of GFP or TagRFP, P61073 1-352 (receptor)
chain: T1 chain
FRET efficiency [1]: 10.9%
FRET efficiency [2]: 10.4%
